Non-standard residues stand in square brackets, D forms with d. No end group written: not given here. pY = N[C@@H](Cc1ccc(OP(=O)(O)O)cc1)C(=O)O
Molecular target: Nck adaptor protein (Nck1), recombinant (UniProt P16333 1-377)
Test: MST

B1: peptide Y474 (pY-containing Tir peptide) (peptide)
chain: EEHI[pY]DEVAAD
B1 showed a Kd of 76.4 nM.

Source: article PMC10755736 (2023)
